Reference: patent US8314210B2, “Compositions and methods for the generation of MHC class II compounds by peptide exchange” (priority 2002, dated 2012)
Peptide text beside a SMILES is read from it. * marks the point of attachment. Dnp = O=[N+]([O-])c1ccc(*)c([N+](=O)[O-])c1; Ahx = NCCCCCC(=O)O

What was measured:
Assay type in all cases: binding
DR4 (DRA, DRB1*0401) = target: T1, DR4 (DRA, DRB1*0401) (Homo sapiens, UniProt P01903+P01911, A100K/A169T/F76Y/I96L/K127E/L162R/M171V/N62H/P40V/Q125Y/R42H/S133A/S149N/S66Y/V115G/V209L/W38E); experiment: Competition assay of HCV peptides, biotinylated HA (306-318) on thrombin-cleaved DR4/CLIP; conditions: competitor 30 nM to 10 μM vs 30 nM labeled HA peptide
T1 construct: were attached to the 3′ end of the DRα and DRβ ectodomains; CLIP peptide […]; made in house

DR4 = target: T2, DR4 (Homo sapiens, UniProt P01903+P01911, A100K/A169T/F76Y/I96L/K127E/L162R/M171V/N62H/P40V/Q125Y/R42H/S133A/S149N/S66Y/V115G/V209L/W38E); experiment: Kinetics of CLIP dissociation and peptide association; conditions: DR4, pH 5.2
T2 construct: CLIP peptide […]; made in house

DRB1*0401 = target: T3, DRB1*0401 (Homo sapiens, UniProt P01903+P01911, A100K/A169T/F76Y/I96L/K127E/L162R/M171V/N62H/P40V/Q125Y/R42H/S133A/S149N/S66Y/V115G/V209L/W38E); conditions: 3.3 μM *DR/CLIP, 50 μM DNP-labeled peptide, pH 5.2, overnight 30° C.
T3 construct: were attached to the 3′ end of the DRα and DRβ ectodomains; CLIP peptide […]; made in house

HLA-DR4 (DRA, DRB1*0401) = target: T4, HLA-DR4 (DRA, DRB1*0401) (Homo sapiens, UniProt P01903+P01911, A100K/A169T/F76Y/I96L/K127E/L162R/M171V/N62H/P40V/Q125Y/R42H/S133A/S149N/S66Y/V115G/V209L/W38E); experiment: biochemical; conditions: Table 2, DRB1*0401, read-out: (μM) [head prints unit only
T4 construct: were attached to the 3′ end of the DRα and DRβ ectodomains; CLIP peptide […]; made in house

Compound: aa 1581-1600: HCV peptide aa 1581-1600 tested for DR4 binding, printed with SEQ ID NO:20
- binding to DR4 (DR4 (DRA, DRB1*0401)): bound to DR4

Compound: aa 1771-1790: HCV peptide aa 1771-1790 tested for DR4 binding, printed with SEQ ID NO:21 (SGIQYLAGLSTLPGNPAIASL; listed as Homo sapiens)
- binding to DR4 (DR4 (DRA, DRB1*0401)): bound to DR4

Compound: CGGGPVSKMRMATPLLMQA [Alexa-488 labeled CLIP peptide]
- time by which almost all of the bound CLIP peptide had dissociated (DR4): ≤ 30 min

Compound: aa 1241-1260: HCV peptide aa 1241-1260 tested for DR4 binding, printed with SEQ ID NO:19 (GYKVLVLNPSVAATL; listed as Homo sapiens)
- binding to DR4 (DR4 (DRA, DRB1*0401)): bound to DR4

Compound: CC[C@H](C)[C@H](NC(=O)[C@H](CO)NC(=O)[C@@H](NC(=O)[C@@H]1CCCN1C(=O)[C@H](CO)NC(=O)[C@H](Cc1ccc(O)cc1)NC(=O)[C@H](CCSC)NC(=O)[C@H](CCCNC(=N)N)NC(=O)[C@@H](NC(=O)[C@@H](NC(=O)[C@H](CCCCN)NC(=O)[C@H](CC(N)=O)NC(=O)[C@H](CC(C)C)NC(=O)CCCCCNc1ccc([N+](=O)[O-])cc1[N+](=O)[O-])[C@@H](C)CC)C(C)C)C(C)C)C(=O)O [p24 (138-150)/Val] ({Dnp-Ahx}-LNKIVRMYSPVSI-OH; C-terminus assumed)
- Loading Efficiency (%) (DRB1*0401): 90%

Compound: CC[C@H](C)[C@H](NC(=O)[C@H](CCC(N)=O)NC(=O)[C@H](CCC(=O)O)NC(=O)CCCCCNc1ccc([N+](=O)[O-])cc1[N+](=O)[O-])C(=O)NCC(=O)N[C@@H](Cc1c[nH]c2ccccc12)C(=O)N[C@@H](CCSC)C(=O)N[C@H](C(=O)N[C@@H](CC(N)=O)C(=O)N[C@@H](CC(N)=O)C(=O)N1CCC[C@H]1C(=O)N1CCC[C@H]1C(=O)N[C@H](C(=O)N1CCC[C@H]1C(=O)N[C@H](C(=O)NCC(=O)O)C(C)C)[C@@H](C)CC)[C@@H](C)O [p24 (113-127)] ({Dnp-Ahx}-EQIGWMTNNPPIPVG-OH; C-terminus assumed)
- Loading Efficiency (%) (DRB1*0401): 79%

Compound: CC[C@H](C)[C@H](NC(=O)[C@H](CC(N)=O)NC(=O)[C@H](CCCCN)NC(=O)[C@H](Cc1ccccc1)NC(=O)[C@H](Cc1ccccc1)NC(=O)[C@H](Cc1c[nH]cn1)NC(=O)[C@@H](NC(=O)[C@@H](NC(=O)CCCCCNc1ccc([N+](=O)[O-])cc1[N+](=O)[O-])C(C)C)C(C)C)C(=O)N[C@H](C(=O)N[C@H](C(=O)N1CCC[C@H]1C(=O)N[C@@H](CCCNC(=N)N)C(=O)N[C@H](C(=O)N1CCC[C@H]1C(=O)N1CCC[C@H]1C(=O)O)[C@@H](C)O)[C@@H](C)O)C(C)C [MBP(88-102)] ({Dnp-Ahx}-VVHFFKNIVTPRTPP-OH)
- IC50 (HLA-DR4 (DRA, DRB1*0401)): 0.3 µM
